Among the data in patent publication US20180036441A1 (Dana-Farber, published 2018) are geometric mean, EC50 and koff values, retold here.

Sequences and labels used below:
T1: MUC1-SEA-His protein (UniProt P15941 1039-1148, limits assumed)
T1 construct: domain: SEA; Recombinant antigen used for ELISA coating and as Biacore analyte; also called MUC-SEA-His; antigen protein; not shown: His tag
T1 sequence (looked up): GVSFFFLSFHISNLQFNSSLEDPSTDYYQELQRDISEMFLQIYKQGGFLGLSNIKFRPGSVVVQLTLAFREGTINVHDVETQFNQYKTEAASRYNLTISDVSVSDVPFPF

B1: VH5 + VL3 (antibody, V domains shown)
VH: EVQLVQSGAEVKKPGESLKISCKGSGYAFSNFWMNWVRQMPGKGLEWMGQIYPGDGDTNYNGKFKGQVTISADKSISTAYLQWSSLKASDTAMYYCARSYYRSAWFAYWGQGTLVTVSL
VL: EIVLTQSPATLSLSPGERATLSCRASQSIGTSIHWYQQKPGQAPRLLIYYASESISGIPARFSGSGSGTDFTLTISSLEPEDFAVYYCQQSNNWPLTFGGGTKVEIK
notes: Humanized IgG expressed in HEK293; also called humanized antibody VH5+VL3
B2: VH5 + VL4 (antibody, V domains shown)
VH: B1 VH
VL: AIQLTQSPSSLSASVGDRVTITCRASQSIGTSIHWYQQKPGKAPKLLIYYASESISGVPSRFSGSGSGTDFTLTISSLQPEDFATYYCQQSNNWPLTFGGGTKVEIK
notes: Humanized IgG expressed in HEK293; also called humanized antibody VH5+VL4
B3: VH2 + VL1 (antibody, V domains shown)
VH: QVQLVQSGAEVKKPGASVKVSCKASGYAFSNFWMNWVRQAPGQGLEWMGQIYPGDGDTNYNGKFKGRVTMTRDTSTSTVYMELSSLRSEDTAVYYCARSYYRSAWFAYWGQGTLVTVSS
VL: EIVLTQSPDFQSVTPKEKVTITCRASQSIGTSIHWYQQKPDQSPKLLIKYASESISGVPSRFSGSGSGTDFTLTINSLEAEDAATYYCQQSNNWPLTFGQGTKVEIK
notes: Humanized IgG expressed in HEK293; also called humanized antibody VH2+VL1
B4: VH4 + VL2 (antibody, V domains shown)
VH: B3 VH with S17T, V20I, A24V, R38Q, Q43K, M70I, R72A, S77D, V79A, S119R
VL: B1 VL with L4M, L13V, D70E, E79Q, P80S
notes: Humanized IgG expressed in HEK293; also called humanized antibody VH4+VL2
B5: VH1 + VL2 (antibody, V domains shown)
VH: B3 VH with A16S, M70I, R72A, T74K, V79A
VL: B1 VL with L4M, L13V, D70E, E79Q, P80S
notes: Humanized IgG expressed in HEK293; also called humanized antibody VH1+VL2
B6: VH1 + VL3 (antibody, V domains shown)
VH: B3 VH with A16S, M70I, R72A, T74K, V79A
VL: B1 VL
notes: Humanized IgG expressed in HEK293; also called humanized antibody VH1+VL3
B7: VH5 + VL2 (antibody, V domains shown)
VH: B1 VH
VL: B1 VL with L4M, L13V, D70E, E79Q, P80S
notes: Humanized IgG expressed in HEK293; also called humanized antibody VH5+VL2
B8: VH3 + VL2 (antibody, V domains shown)
VH: B3 VH with T76I, V79A, S85R, E89D
VL: B1 VL with L4M, L13V, D70E, E79Q, P80S
notes: Humanized IgG expressed in HEK293; also called humanized antibody VH3+VL2
B9: VH2 + VL2 (antibody, V domains shown)
VH: B3 VH
VL: B1 VL with L4M, L13V, D70E, E79Q, P80S
notes: Humanized IgG expressed in HEK293; also called humanized antibody VH2+VL2
B10: VH4 + VL3 (antibody, V domains shown)
VH: B3 VH with S17T, V20I, A24V, R38Q, Q43K, M70I, R72A, S77D, V79A, S119R
VL: B1 VL
notes: Humanized IgG expressed in HEK293; also called humanized antibody VH4+VL3
B11: VH5 + VL5 (antibody, V domains shown)
VH: B1 VH
VL: B2 VL with A1D, Q3V, L4M, S10L, V15T, T22S, K45E, S77C, P80S, G100Q
notes: Humanized IgG expressed in HEK293; also called humanized antibody VH5+VL5
B12: VH3 + VL5 (antibody, V domains shown)
VH: B3 VH with T76I, V79A, S85R, E89D
VL: B2 VL with A1D, Q3V, L4M, S10L, V15T, T22S, K45E, S77C, P80S, G100Q
notes: Humanized IgG expressed in HEK293; also called humanized antibody VH3+VL5
B13: VH4 + VL5 (antibody, V domains shown)
VH: B3 VH with S17T, V20I, A24V, R38Q, Q43K, M70I, R72A, S77D, V79A, S119R
VL: B2 VL with A1D, Q3V, L4M, S10L, V15T, T22S, K45E, S77C, P80S, G100Q
notes: Humanized IgG expressed in HEK293; also called humanized antibody VH4+VL5
B14: VH1 + VL5 (antibody, V domains shown)
VH: B3 VH with A16S, M70I, R72A, T74K, V79A
VL: B2 VL with A1D, Q3V, L4M, S10L, V15T, T22S, K45E, S77C, P80S, G100Q
notes: Humanized IgG expressed in HEK293; also called humanized antibody VH1+VL5
B15: VH2 + VL5 (antibody, V domains shown)
VH: B3 VH
VL: B2 VL with A1D, Q3V, L4M, S10L, V15T, T22S, K45E, S77C, P80S, G100Q
notes: Humanized IgG expressed in HEK293; also called humanized antibody VH2+VL5
B16: VH4 + VL4 (antibody, V domains shown)
VH: B3 VH with S17T, V20I, A24V, R38Q, Q43K, M70I, R72A, S77D, V79A, S119R
VL: B2 VL
notes: Humanized IgG expressed in HEK293; also called humanized antibody VH4+VL4

Positions count from the first letter of the chain named.

The target of the first experiment is T2, MUC1 on HCT116/MUC1 cells (UniProt P15941 24-1255, limits assumed).
T2 construct: whole, on cells; also called MUC1 overexpressed cell line
T2 sequence (P15941 24-1255 limits assumed): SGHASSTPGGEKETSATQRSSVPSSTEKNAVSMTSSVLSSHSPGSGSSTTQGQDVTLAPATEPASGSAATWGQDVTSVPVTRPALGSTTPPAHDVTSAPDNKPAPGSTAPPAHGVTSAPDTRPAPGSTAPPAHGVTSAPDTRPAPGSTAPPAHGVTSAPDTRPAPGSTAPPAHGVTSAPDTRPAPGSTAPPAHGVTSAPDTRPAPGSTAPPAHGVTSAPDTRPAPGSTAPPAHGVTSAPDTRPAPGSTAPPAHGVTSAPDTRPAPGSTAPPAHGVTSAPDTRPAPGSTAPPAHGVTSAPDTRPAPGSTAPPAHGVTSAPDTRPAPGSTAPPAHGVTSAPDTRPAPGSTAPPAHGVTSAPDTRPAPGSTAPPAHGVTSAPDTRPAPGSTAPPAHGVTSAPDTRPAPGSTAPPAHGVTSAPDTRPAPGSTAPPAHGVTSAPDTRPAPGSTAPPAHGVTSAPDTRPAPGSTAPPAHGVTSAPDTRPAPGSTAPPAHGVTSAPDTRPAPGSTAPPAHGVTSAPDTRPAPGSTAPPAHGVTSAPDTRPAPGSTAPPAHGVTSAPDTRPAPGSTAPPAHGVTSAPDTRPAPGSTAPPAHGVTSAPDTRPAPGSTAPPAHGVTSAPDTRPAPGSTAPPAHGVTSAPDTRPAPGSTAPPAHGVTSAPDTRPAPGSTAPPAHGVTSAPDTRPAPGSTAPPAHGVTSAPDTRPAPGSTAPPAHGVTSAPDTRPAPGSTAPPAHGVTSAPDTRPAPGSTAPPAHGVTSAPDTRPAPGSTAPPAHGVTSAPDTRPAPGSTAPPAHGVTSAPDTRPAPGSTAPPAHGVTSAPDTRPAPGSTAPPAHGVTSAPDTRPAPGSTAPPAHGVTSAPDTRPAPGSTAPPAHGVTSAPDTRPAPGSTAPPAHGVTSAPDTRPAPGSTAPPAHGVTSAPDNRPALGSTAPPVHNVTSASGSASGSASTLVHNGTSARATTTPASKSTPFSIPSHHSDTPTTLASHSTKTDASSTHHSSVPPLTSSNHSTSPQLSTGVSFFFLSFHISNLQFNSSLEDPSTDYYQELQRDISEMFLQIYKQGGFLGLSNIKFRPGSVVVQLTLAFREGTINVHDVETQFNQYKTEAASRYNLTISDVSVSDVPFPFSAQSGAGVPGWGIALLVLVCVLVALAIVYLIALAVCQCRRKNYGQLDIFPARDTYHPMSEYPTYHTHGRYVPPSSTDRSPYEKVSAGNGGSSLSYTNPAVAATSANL
Description: FACS titration, HCT116/MUC1 cells, antibody at 62.5 nM. As to the method: (§1) To assess cell binding, 2×10⁵ HCT116/MUC1 cells per well were washed with PBS twice and incubated in 200 μl of serial dilutions of chimeric or humanized antibodies for 1 hour at room temperature. After washing 3 times with PBS, secondary antibody (2 μg/ml Alexa Flour®488 goat anti-human IgG) was added to cells and incubated for 30 minutes at room temperature. After washing with PBS, cells were analyzed by using FACSCalibur (BD Bioscience, San Jose, Calif.) and Flowjo software.
B1 yielded a geometric mean of 141.

Consider B2, for which the geometric mean was 190.

On to B3, for which the geometric mean amounted to 265.

Another experiment addresses T2, MUC1 on HCT116/MUC1 cells. Description: FACS titration, HCT116/MUC1 cells, antibody at 3.906 nM. As to the method: as §1
Consider B1, for which the geometric mean is 15.5.

For the molecule B2, the geometric mean was 15.3.

On to B3, for which the geometric mean came to 5.23.

The target of the next experiment is T2, MUC1 on HCT116/MUC1 cells. Description: FACS titration, HCT116/MUC1 cells, antibody at 1.953 nM. As to the method:
as §1
With B1, the geometric mean turned out to be 8.05.

Molecule B2 gave a geometric mean of 5.71.

As for B3, the geometric mean came to 4.38.

For another experiment, the target named is T2, MUC1 on HCT116/MUC1 cells. Description: FACS titration on HCT116/MUC1 cells. The protocol:
as §1
For B1, a half-maximal effect (EC50) was put at 21.9 nM.

Molecule B2 returned an EC50 of 20.6 nM.

For the molecule B3, the EC50 was 58.6 nM.

The target of a further experiment is T2, MUC1 on HCT116/MUC1 cells. Description: FACS titration, HCT116/MUC1 cells, antibody at 31.25 nM. The protocol: as §1
With B1, the geometric mean is 110.

Molecule B2 came in with a geometric mean of 152.

In turn, B3 gave a geometric mean of 126.

For a further experiment, the target named is T2, MUC1 on HCT116/MUC1 cells. Description: FACS titration, HCT116/MUC1 cells, antibody at 250 nM. As to the method: as §1
Take B1: the geometric mean turned out to be 167.

Take B2: the geometric mean was 193.

In turn, B3 yielded a geometric mean of 337.

Another experiment concerns the target T2, MUC1 on HCT116/MUC1 cells. Description: FACS titration, HCT116/MUC1 cells, antibody at 125 nM. As to the method:
as §1
Regarding B1, the geometric mean turned out to be 126.

Molecule B2 showed a geometric mean of 202.

Molecule B3 returned a geometric mean of 306.

A further experiment addresses T2, MUC1 on HCT116/MUC1 cells. Description: FACS titration, HCT116/MUC1 cells, antibody at 15.625 nM. The protocol:
as §1
The molecule B1 yielded a geometric mean of 61.5.

B2 had a geometric mean of 67.1.

In the case of B3, the geometric mean stood at 29.

For a further experiment, the target named is T1, MUC1-SEA-His protein. Description: SPR Biacore T200, antibody captured, antigen as analyte. As to the method: Antibody affinity was determined using a Surface Plasmon Resonance (SPR) biosensor, Biacore T200 (GE Healthcare). Antibody was immobilized on the sensor chip through Fc capture method. Antigen protein was used as the analyte. The data of dissociation (kd) and association (ka) rate constants were obtained using Biacore T200 evaluation software. The apparent equilibrium dissociation constants (KD) were calculated from the ratio of kd over ka. For affinity ranking, twenty-five humanized antibodies plus chimericantibody were injected and captured on sensor chip individually. The antibodies were ranked based on their dissociation rates (kd).
Take B1: the koff worked out at 0.0164 s⁻¹.

Consider B4, for which the koff came to 0.0315 s⁻¹.

Molecule B2 displayed a dissociation rate constant (koff) of 0.0179 s⁻¹.

As for B5, the koff amounted to 0.0294 s⁻¹.

For B6, the koff was 0.0225 s⁻¹.

Take B7: the koff was 0.0228 s⁻¹.

B8 returned a koff of 0.0195 s⁻¹.

On to B9, for which the koff is 0.0166 s⁻¹.

Molecule B10 displayed a koff of 0.0237 s⁻¹.

In turn, B11 registered a koff of 0.0207 s⁻¹.

Turning to B3, the off-rate (koff) was determined as 0.00133 s⁻¹.

B12: the koff worked out at 0.023 s⁻¹.

Turning to B13, the koff came to 0.0578 s⁻¹.

In turn, B14 yielded a koff of 0.0302 s⁻¹.

Consider B15, for which the koff was determined as 0.0193 s⁻¹.

In turn, B16 returned a dissociation rate constant (koff) of 0.0243 s⁻¹.

The target of the next experiment is T2, MUC1 on HCT116/MUC1 cells. Description: FACS titration, HCT116/MUC1 cells, antibody at 0.244 nM. The protocol: as §1
In the case of B1, the geometric mean was 2.82.

B2 returned a geometric mean of 2.84.

Regarding B3, the geometric mean amounted to 3.

A further experiment concerns the target T2, MUC1 on HCT116/MUC1 cells. Description: FACS titration, HCT116/MUC1 cells, antibody at 0.488 nM. As to the method:
as §1
The molecule B1 came in with a geometric mean of 3.27.

Turning to B2, the geometric mean is 3.52.

In the case of B3, the geometric mean is 3.27.

The target of another experiment is T2, MUC1 on HCT116/MUC1 cells. Description: FACS titration, HCT116/MUC1 cells, antibody at 7.812 nM. As to the method: as §1
Consider B1, for which the geometric mean came out at 31.

In turn, B2 showed a geometric mean of 28.6.

In the case of B3, the geometric mean is 6.37.

A further experiment addresses T2, MUC1 on HCT116/MUC1 cells. Description: FACS titration, HCT116/MUC1 cells, antibody at 500 nM. As to the method:
as §1
B1 had a geometric mean of 170.

Turning to B2, the geometric mean is 199.

On to B3, for which the geometric mean amounted to 342.

Another experiment addresses T2, MUC1 on HCT116/MUC1 cells. Description: FACS titration, HCT116/MUC1 cells, antibody at 0.977 nM. As to the method:
as §1
On to B1, for which the geometric mean came out at 4.13.

Take B2: the geometric mean was found to be 4.01.

For the molecule B3, the geometric mean turned out to be 3.68.

The term EC50 denotes the midpoint of the concentration-response curve. As usually defined, the koff is the rate constant with which the complex falls apart.
